Assay results: patent US20030162205, “Novel transcription factor having zinc finger domain” (published 2003)

Columns and labels:
[1] = target: T1, GST-285C (m285 C-terminal, three zinc fingers) (Mus musculus, UniProt Q9JHX2 SEQ:271-398); assay: competition; unlabeled mutant competitor had no effect on complex with GC-box; settings: tags: GST N-terminal (pGEX 4T-3)
From the text: (§1) Sp1 is known to bind to a GC-box through its three zinc finger domains. The m285 cloned in the present invention has three zinc finger domains that share a very high homology with the Sp family, and therefore the protein was expected to bind to a GC-box. Thus, 285F, 285N, and 285C were expressed as GST fusion proteins in E. coli to examine their binding to a GC-box. GST fusion proteins purified with glutathione Sepharose, and as the GC box a DNA probe having the nucleotide sequence in the Waf-1 promoter region which sequence binds to Sp1 were used. DNA probe was prepared by labeling ds-(5′-TCGAAAGGAGGCGGGACCCGAGCT-3′/SEQ ID NO: 25) containing a GC-box sequence with 33-P. The DNA probe was reacted with GST-285F, GST-285N, and GST-285C described above in EMSA buffer (20 mM HEPES, 40 mM KCl, 6 MM MgCl₂, 1 mM EGTA, 1 mM DTT, 0.1% NP-40, 10% Glycerol, 0.15% BSA, 25 ng/μl sonicated salmon sperm DNA) for 20 minutes. To examine the presence of competitive inhibition, either an unlabeled GC-box DNA probe or unlabeled mutant GC-box DNA probe (ds-(5′-TCGAAAGGAGTTTTGACCCGGAGCT-3′/SEQ ID NO: 26)) was further added to a similar reaction system. Recombinant Sp1 was used as a positive control. The reactants were electrophoresed on 5% acrylamide gel and were exposed to imaging plates. Analyses were performed using BAS2000 imaging analyzer.
(§2) As a result of gel shift assay, bands that were considered to correspond to DNA-protein complex were observed when GST-285F, GST-285C, or recombinant Sp1 were reacted with the 33-P labeled GC-box DNA probe (FIG. 9; lanes 1, 4, and 9). No complex b and could be observed for GST-285N reacted with the GC-box DNA probe (FIG. 9; lane 7). The addition of unlabeled GC-box DNA probe vanished or decreased the complex bands of GST-285F, GST-285C, or recombinant Sp1, and the GC-box DNA probe (FIG. 9; lanes 2, 5, and 10). Further, the addition of unlabeled mutant GC-box DNA probe to a similar reaction system had no effect on the complex bands of GST-285F, GST-285C, or recombinant Sp1, and the GC-box DNA probe (FIG. 9; lanes 3, 6, and 11).

[2] = target: T2, GST-285F (m285 full length) (Mus musculus, UniProt Q9JHX2 SEQ:1-398); assay: as above; settings: tags: GST N-terminal (pGEX 4T-3)
T2 sequence (Q9JHX2 whole entry): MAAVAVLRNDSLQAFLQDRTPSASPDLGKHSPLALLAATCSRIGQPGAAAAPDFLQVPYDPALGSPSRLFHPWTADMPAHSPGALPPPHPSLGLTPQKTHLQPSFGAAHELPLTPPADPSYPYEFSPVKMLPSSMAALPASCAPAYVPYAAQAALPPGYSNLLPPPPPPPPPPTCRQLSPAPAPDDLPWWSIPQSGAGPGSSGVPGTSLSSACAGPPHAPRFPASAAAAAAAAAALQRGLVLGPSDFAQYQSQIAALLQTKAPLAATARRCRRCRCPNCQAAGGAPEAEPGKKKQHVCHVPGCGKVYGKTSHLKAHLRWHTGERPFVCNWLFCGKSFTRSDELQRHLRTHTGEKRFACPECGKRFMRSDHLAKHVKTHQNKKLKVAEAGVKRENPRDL
From the text: as §1, §2

Sp1 [3] = target: T3, Sp1 (UniProt P08047 P08047:2-785); assay: as above
T3 sequence (P08047 2-785, one chain of several): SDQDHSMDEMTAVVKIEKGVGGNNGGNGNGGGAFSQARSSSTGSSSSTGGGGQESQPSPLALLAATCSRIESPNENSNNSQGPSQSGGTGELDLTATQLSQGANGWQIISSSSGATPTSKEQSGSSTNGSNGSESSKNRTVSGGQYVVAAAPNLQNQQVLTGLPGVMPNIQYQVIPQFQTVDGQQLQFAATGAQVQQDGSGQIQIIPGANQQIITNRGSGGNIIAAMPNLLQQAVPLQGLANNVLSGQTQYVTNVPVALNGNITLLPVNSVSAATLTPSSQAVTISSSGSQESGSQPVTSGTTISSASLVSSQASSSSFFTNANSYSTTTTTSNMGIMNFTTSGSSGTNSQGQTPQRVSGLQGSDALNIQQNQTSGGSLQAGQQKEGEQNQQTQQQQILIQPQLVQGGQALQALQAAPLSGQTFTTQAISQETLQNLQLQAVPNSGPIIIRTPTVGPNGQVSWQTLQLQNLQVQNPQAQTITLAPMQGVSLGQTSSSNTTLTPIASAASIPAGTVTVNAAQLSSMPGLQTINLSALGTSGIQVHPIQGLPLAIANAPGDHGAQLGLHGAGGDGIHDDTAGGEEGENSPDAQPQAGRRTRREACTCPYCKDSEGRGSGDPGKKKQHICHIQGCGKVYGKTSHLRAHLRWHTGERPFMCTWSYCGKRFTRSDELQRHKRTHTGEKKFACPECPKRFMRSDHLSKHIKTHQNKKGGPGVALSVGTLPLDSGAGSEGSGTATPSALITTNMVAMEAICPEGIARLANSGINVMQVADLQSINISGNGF
From the text: as §1, §2

[4] = target: T1, GST-285C (m285 C-terminal, three zinc …); assay: EMSA; same buffer; competed by unlabeled GC-box; settings: tags: GST N-terminal (pGEX 4T-3); label: 33P
From the text: as §1, with “analyzer. […]” for “analyzer.”

Sp1 [5] = target: T3, Sp1; assay: EMSA; positive control; competed by unlabeled GC-box; settings: label: 33P
From the text: as §1, with “analyzer. […]” for “analyzer.”

[6] = target: T2, GST-285F (m285 full length); assay: EMSA; 20 mM HEPES, 40 mM KCl, 6 mM MgCl2, salmon sperm DNA; competed by unlabeled GC-box; settings: tags: GST N-terminal (pGEX 4T-3); label: 33P
From the text: as §1, with “analyzer. […]” for “analyzer.”

[7] = target: GST-285N (m285 N-terminal) (Mus musculus, UniProt Q9JHX2 SEQ:1-278); assay: EMSA; no complex; lacks zinc fingers; settings: tags: GST N-terminal (pGEX 4T-3); label: 33P
Chain of GST-285N (m285 N-terminal) (Q9JHX2 1-278): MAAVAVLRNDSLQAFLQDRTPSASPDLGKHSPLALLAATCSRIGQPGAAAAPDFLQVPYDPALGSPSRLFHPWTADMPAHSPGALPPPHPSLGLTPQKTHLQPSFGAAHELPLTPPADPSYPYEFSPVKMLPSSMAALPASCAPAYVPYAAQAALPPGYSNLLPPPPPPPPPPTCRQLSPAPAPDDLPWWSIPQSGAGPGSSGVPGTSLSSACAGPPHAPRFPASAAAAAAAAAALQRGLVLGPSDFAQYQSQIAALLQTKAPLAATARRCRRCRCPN
From the text: as §1, with “analyzer. […]” for “analyzer.”

T1 sequence (Q9JHX2 271-398): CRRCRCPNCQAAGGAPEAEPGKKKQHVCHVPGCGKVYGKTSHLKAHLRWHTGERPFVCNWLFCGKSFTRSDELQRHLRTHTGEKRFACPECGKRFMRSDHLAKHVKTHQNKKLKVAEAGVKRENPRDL

Row | Binder | binding result [1] | binding result [2] | binding result (Sp1 [3]) | binding result [4] | binding result (Sp1 [5]) | binding result [6] | binding result [7]
1 | mutant GC-box (dsDNA) DNA 1: TCGAAAGGAGTTTTGACCCGGAGCT DNA 2: AGCTCCGGGTCAAAACTCCTTTCGA | no binding | no binding | no binding | – | – | – | –
2 | Waf-1 promoter GC-box probe (dsDNA) DNA 1: TCGAAAGGAGGCGGGACCCGAGCT DNA 2: AGCTCGGGTCCCGCCTCCTTTCGA | – | – | – | binds | binds | binds | no binding
